Results on six molecules are retold here after patent US20140274782A1, “AFFINITY REAGENTS AND METHODS FOR DETECTION, PURIFICATION, AND PROTEOMIC ANALYSIS OF METHYLATED PROTEINS” (The Board of Trustees of the Leland Stanford Junior …, priority 2013, published 2014).

One assay concerns the target T1, G9a and GLP (Homo sapiens, UniProt Q96KQ7+Q9H9B1).
T1 sequence (Q96KQ7 2-1210 limits assumed): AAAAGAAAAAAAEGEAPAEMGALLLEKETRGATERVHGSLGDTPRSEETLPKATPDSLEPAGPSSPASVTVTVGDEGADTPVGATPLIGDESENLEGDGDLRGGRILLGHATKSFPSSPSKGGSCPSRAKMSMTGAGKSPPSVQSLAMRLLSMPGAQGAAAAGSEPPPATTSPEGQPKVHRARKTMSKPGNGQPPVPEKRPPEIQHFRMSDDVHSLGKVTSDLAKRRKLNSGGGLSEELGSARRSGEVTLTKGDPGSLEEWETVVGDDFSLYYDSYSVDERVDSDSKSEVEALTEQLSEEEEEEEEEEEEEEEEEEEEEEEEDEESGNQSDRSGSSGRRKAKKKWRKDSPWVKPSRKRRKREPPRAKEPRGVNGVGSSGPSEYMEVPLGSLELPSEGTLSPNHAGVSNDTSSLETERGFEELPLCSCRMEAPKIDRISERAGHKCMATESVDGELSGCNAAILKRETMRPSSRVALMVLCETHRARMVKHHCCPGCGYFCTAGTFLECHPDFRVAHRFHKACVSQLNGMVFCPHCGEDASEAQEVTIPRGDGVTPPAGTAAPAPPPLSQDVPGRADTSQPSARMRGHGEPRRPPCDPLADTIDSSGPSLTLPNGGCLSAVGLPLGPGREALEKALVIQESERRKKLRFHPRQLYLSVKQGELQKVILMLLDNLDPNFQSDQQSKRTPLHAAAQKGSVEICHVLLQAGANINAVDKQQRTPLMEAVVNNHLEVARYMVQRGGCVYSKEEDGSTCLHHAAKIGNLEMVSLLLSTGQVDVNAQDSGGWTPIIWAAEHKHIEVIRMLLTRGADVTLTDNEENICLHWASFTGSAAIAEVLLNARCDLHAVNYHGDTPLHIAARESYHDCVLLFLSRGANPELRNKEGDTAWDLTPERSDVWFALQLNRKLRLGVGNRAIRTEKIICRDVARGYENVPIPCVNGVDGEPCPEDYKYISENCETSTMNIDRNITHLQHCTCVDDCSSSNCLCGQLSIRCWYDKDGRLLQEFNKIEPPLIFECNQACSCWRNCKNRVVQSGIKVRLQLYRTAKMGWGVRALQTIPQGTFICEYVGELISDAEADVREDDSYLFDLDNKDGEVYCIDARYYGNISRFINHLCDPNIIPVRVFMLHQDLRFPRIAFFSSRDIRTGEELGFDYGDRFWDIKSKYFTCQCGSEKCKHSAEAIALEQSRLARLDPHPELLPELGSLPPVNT
T1 sequence (Q9H9B1 2-1298 limits assumed): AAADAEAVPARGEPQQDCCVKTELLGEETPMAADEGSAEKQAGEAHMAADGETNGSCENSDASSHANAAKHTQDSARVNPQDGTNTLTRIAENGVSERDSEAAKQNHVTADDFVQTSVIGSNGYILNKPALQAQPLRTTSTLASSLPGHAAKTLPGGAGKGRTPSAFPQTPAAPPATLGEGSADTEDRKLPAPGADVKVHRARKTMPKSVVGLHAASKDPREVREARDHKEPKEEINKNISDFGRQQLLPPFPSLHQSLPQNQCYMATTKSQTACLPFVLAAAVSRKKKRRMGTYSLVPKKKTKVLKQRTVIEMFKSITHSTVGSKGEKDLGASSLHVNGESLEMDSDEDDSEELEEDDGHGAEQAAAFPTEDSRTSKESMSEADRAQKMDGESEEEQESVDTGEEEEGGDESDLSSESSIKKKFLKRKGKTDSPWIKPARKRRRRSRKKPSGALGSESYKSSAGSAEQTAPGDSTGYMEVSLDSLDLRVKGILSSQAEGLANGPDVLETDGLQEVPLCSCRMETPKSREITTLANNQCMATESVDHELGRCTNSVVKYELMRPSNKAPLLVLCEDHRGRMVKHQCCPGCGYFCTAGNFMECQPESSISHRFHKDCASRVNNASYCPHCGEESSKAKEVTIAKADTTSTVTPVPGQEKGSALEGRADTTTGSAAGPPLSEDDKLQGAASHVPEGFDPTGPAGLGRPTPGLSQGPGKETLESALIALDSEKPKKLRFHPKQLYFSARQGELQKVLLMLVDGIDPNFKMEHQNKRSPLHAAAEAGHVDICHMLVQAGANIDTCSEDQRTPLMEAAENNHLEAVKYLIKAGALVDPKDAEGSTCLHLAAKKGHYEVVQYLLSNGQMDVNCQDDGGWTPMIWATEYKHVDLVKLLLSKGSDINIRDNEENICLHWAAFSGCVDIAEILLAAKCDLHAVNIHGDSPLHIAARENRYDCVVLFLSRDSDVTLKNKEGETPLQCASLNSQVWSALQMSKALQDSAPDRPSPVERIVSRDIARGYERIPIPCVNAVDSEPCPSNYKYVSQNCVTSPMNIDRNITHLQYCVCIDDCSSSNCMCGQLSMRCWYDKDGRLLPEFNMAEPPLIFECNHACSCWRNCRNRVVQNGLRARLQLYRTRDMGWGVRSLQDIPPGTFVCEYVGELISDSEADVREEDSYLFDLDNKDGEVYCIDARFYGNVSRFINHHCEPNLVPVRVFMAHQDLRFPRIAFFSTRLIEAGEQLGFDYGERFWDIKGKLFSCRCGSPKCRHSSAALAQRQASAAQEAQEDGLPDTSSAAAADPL
Briefly: Triple SILAC pull-down after UNC0638 treatment of 293T cells, DMSO/UNC0638 ratio of protein captured by 3×MBT.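 As to all read-outs here: mass spectrometry (Q-Exactive) SILAC quantitation, DMSO/UNC0638 ratio computed after subtracting 3×MBTD355N mutant pull-down background, only proteins with at least twofold 3×MBT over mutant signal considered.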 The arrangement: endogenous in cells; host or cells: HEK 293T. To be noted: for Relative to UNC0638 UNC Heavy / Relative to UNC0638 UNC Light: SILAC ratio DMSO/UNC0638 of protein pulled down with 3xMBT; for Relative to UNC0638 UNC Heavy: UNC0638 in heavy SILAC media; for Relative to UNC0638 UNC Light: UNC0638 in light SILAC media; for Relative to UNC0638 Average: average of UNC Light and UNC Heavy experiments; for Candidate G9a/GLP target: reduced association with 3xMBT after UNC0638 treatment. Format: cell-based.

For a further assay, the system named is 3×MBT domain of L3MBTL1. In words: Triple SILAC pull-down, 3xMBT/3xMBTD355N ratio (cytoplasmic, nuclear and chromatin fractions of 293T cells).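 As to all read-outs here: proteins quantified with MaxQuant, requiring at least two unique peptides and quantification in both label directions, normalized to the mean of proteins from a digested loading control.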 It counts as binding, human. To be noted: SILAC ratio, pull-down 3xMBT vs 3xMBTD355N; for 3xMBT/D355N UNC Heavy: experiment with UNC0638 in heavy SILAC media; for 3xMBT/D355N UNC Light: experiment with UNC0638 in light SILAC media.

B1: API5 (protein, UniProt Q9BZZ5 2-524, looked up)
Apoptosis inhibitor 5: PTVEELYRNYGILADATEQVGQHKDAYQVILDGVKGGTKEKRLAAQFIPKFFKHFPELADSAINAQLDLCEDEDVSIRRQAIKELPQFATGENLPRVADILTQLLQTDDSAEFNLVNNALLSIFKMDAKGTLGGLFSQILQGEDIVRERAIKFLSTKLKTLPDEVLTKEVEELILTESKKVLEDVTGEEFVLFMKILSGLKSLQTVSGRQQLVELVAEQADLEQTFNPSDPDCVDRLLQCTRQAVPLFSKNVHSTRFVTYFCEQVLPNLGTLTTPVEGLDIQLEVLKLLAEMSSFCGDMEKLETNLRKLFDKLLEYMPLPPEEAENGENAGNEEPKLQFSYVECLLYSFHQLGRKLPDFLTAKLNAEKLKDFKIRLQYFARGLQVYIRQLRLALQGKTGEALKTEENKIKVVALKITNNINVLIKDLFHIPPSYKSTVTLSWKPVQKVEIGQKRASEDTTSGSPPKKSSAGPKRDARQIYNPPSGKYSSNLGNFNYEQRGAFRGSRGGRGWGTRGNRSRGRLY
Turning to B1, in the assay with G9a and GLP, the “Relative to UNC0638 UNC Heavy” value came to 1.12 log base 2, the “Relative to UNC0638 UNC Light” value was 0.31 log base 2, the “Relative to UNC0638 Average” value was determined as 0.71 log base 2 and the “Candidate G9a/GLP target” value was “✓”. Besides, in the assay with 3×MBT domain of L3MBTL1, the “3xMBT/D355N UNC Heavy” value is 3.54 log base 2 and the “3xMBT/D355N UNC Light” value came to 2.67 log base 2.

B2: ZNF326 (protein, UniProt Q5BKZ1 1-582, looked up)
DBIRD complex subunit ZNF326: MDFEDDYTHSACRNTYQGFNGMDRDYGPGSYGGMDRDYGHGSYGGQRSMDSYLNQSYGMDNHSGGGGGSRFGPYESYDSRSSLGGRDLYRSGYGFNEPEQSRFGGSYGGRFESSYRNSLDSFGGRNQGGSSWEAPYSRSKLRPGFMEDRGRENYSSYSSFSSPHMKPAPVGSRGRGTPAYPESTFGSRNYDAFGGPSTGRGRGRGHMGDFGSIHRPGIVVDYQNKSTNVTVAAARGIKRKMMQPFNKPSGTFIKKPKLAKPMEKISLSKSPTKTDPKNEEEEKRRIEARREKQRRRREKNSEKYGDGYRMAFTCSFCKFRTFEEKDIELHLESSSHQETLDHIQKQTKFDKVVMEFLHECMVNKFKKTSIRKQQTNNQTEVVKIIEKDVMEGVTVDDHMMKVETVHCSACSVYIPALHSSVQQHLKSPDHIKGKQAYKEQIKRESVLTATSILNNPIVKARYERFVKGENPFEIQDHSQDQQIEGDEEDEEKIDEPIEEEEDEDEEEEAEEVGEVEEVEEVEEVREGGIEGEGNIQGVGEGGEVGVVGEVEGVGEVEEVEELEEETAKEEPADFPVEQPEEN
For B2, in the assay with G9a and GLP, the “Relative to UNC0638 UNC Heavy” value is recorded as −0.02 log base 2, the “Relative to UNC0638 UNC Light” value came to 0.33 log base 2 and the “Relative to UNC0638 Average” value stood at 0.15 log base 2. For the same molecule, in the assay on 3×MBT domain of L3MBTL1, the “3xMBT/D355N UNC Heavy” value came out at 3.01 log base 2 and the “3xMBT/D355N UNC Light” value came to 6.59 log base 2.

B3: SRP19 (protein, UniProt P09132 1-144, looked up)
Signal recognition particle …: MACAAARSPADQDRFICIYPAYLNNKKTIAEGRRIPISKAVENPTATEIQDVCSAVGLNVFLEKNKMYSREWNRDVQYRGRVRVQLKQEDGSLCLVQFPSRKSVMLYAAEMIPKLKTRTQKTGGADQSLQQGEGSKKGKGKKKK
Turning to B3, in the assay with G9a and GLP, the “Relative to UNC0638 UNC Heavy” value is −0.08 log base 2, the “Relative to UNC0638 UNC Light” value was 0.38 log base 2 and the “Relative to UNC0638 Average” value amounted to 0.15 log base 2. Also, in the assay with 3×MBT domain of L3MBTL1, the “3xMBT/D355N UNC Heavy” value is reported as 1.88 log base 2 and the “3xMBT/D355N UNC Light” value is reported as 2.14 log base 2.

B4: HN1L (protein, UniProt Q9H910 1-190, looked up)
Jupiter microtubule …: MFQVPDSEGGRAGSRAMKPPGGESSNLFGSPEEATPSSRPNRMASNIFGPTEEPQNIPKRTNPPGGKGSGIFDESTPVQTRQHLNPPGGKTSDIFGSPVTATSRLAHPNKPKDHVFLCEGEEPKSDLKAARSIPAGAEPGEKGSARKAGPAKEQEPMPTVDSHEPRLGPRPRSHNKVLNPPGGKSSISFY
As for B4, in the assay with G9a and GLP, the “Relative to UNC0638 UNC Heavy” value is recorded as 0.17 log base 2, the “Relative to UNC0638 UNC Light” value is listed as 1.22 log base 2, the “Relative to UNC0638 Average” value was determined as 0.70 log base 2 and the “Candidate G9a/GLP target” value is recorded as “✓”. Moreover, in the assay with 3×MBT domain of L3MBTL1, the “3xMBT/D355N UNC Heavy” value is recorded as 2.73 log base 2 and the “3xMBT/D355N UNC Light” value was 3.57 log base 2.

B5: KIN (protein, UniProt O60870 1-393, looked up)
DNA/RNA-binding protein KIN17: MGKSDFLTPKAIANRIKSKGLQKLRWYCQMCQKQCRDENGFKCHCMSESHQRQLLLASENPQQFMDYFSEEFRNDFLELLRRRFGTKRVHNNIVYNEYISHREHIHMNATQWETLTDFTKWLGREGLCKVDETPKGWYIQYIDRDPETIRRQLELEKKKKQDLDDEEKTAKFIEEQVRRGLEGKEQEVPTFTELSRENDEEKVTFNLSKGACSSSGATSSKSSTLGPSALKTIGSSASVKRKESSQSSTQSKEKKKKKSALDEIMEIEEEKKRTARTDYWLQPEIIVKIITKKLGEKYHKKKAIVKEVIDKYTAVVKMIDSGDKLKLDQTHLETVIPAPGKRILVLNGGYRGNEGTLESINEKTFSATIVIETGPLKGRRVEGIQYEDISKLA
In the case of B5, in the assay with G9a and GLP, the “Relative to UNC0638 UNC Heavy” value stood at 0.35 log base 2, the “Relative to UNC0638 UNC Light” value is listed as −0.04 log base 2 and the “Relative to UNC0638 Average” value was determined as 0.15 log base 2. In addition, in the assay on 3×MBT domain of L3MBTL1, the “3xMBT/D355N UNC Heavy” value is listed as 2.85 log base 2 and the “3xMBT/D355N UNC Light” value is listed as 2.11 log base 2.

B6: HNRNPA0 (protein, UniProt Q13151 1-305, looked up)
Heterogeneous nuclear …: MENSQLCKLFIGGLNVQTSESGLRGHFEAFGTLTDCVVVVNPQTKRSRCFGFVTYSNVEEADAAMAASPHAVDGNTVELKRAVSREDSARPGAHAKVKKLFVGGLKGDVAEGDLIEHFSQFGTVEKAEIIADKQSGKKRGFGFVYFQNHDAADKAAVVKFHPIQGHRVEVKKAVPKEDIYSGGGGGGSRSSRGGRGGRGRGGGRDQNGLSKGGGGGYNSYGGYGGGGGGGYNAYGGGGGGSSYGGSDYGNGFGGFGSYSQHQSSYGPMKSGGGGGGGGSSWGGRSNSGPYRGGYGGGGGYGGSSF
As to B6, in the assay with G9a and GLP, the “Relative to UNC0638 UNC Heavy” value was 0.02 log base 2, the “Relative to UNC0638 UNC Light” value worked out at 0.28 log base 2 and the “Relative to UNC0638 Average” value is reported as 0.15 log base 2. Further, in the assay with 3×MBT domain of L3MBTL1, the “3xMBT/D355N UNC Heavy” value was 2.94 log base 2 and the “3xMBT/D355N UNC Light” value is reported as 3.80 log base 2.
